Laboratory results as given in patent publication US20260184777A1 (BEIJING SUNGEN BIOMEDICAL TECHNOLOGY, published 2026).
Substitutions are numbered along the chain they refer to.

T1: human S100A8/A9 heterodimeric antigen, His-tagged (hS100A8/A9-His) (human, UniProt P05109 1-93; P06702 1-114)
T1 sequence 1: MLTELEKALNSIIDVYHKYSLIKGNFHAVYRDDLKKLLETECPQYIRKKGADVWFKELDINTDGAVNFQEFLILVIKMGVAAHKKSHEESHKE
T1 sequence 2: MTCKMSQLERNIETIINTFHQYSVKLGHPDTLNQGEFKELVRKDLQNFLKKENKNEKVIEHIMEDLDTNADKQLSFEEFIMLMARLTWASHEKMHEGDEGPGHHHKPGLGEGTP

B1: CM-63 (antibody, human IgG4 S228P, lambda, V domains shown)
VH: EVQLVESGGGLVQPGGSLRLSCAASGFTFSSYAMSWVRQAPGKGLEWVSAISGSGGSTWYAASVKGRFTISRDNSKNTLYLQMNSLRAEDTAVYYCARKYRPSRVFDAWGQGTLVTVSS
VL: SYELTQPPSVSVAPGQTARITCSGDALGDKYASWYQQKPGQAPVLVIYEDAKRPSGIPERFSGSNSGNTATLTISGTQAEDEADYYCQSNDVDAVWVFGGGTKLTVLG
B2: CM-99 (antibody, human IgG4 S228P, lambda, V domains shown)
VH: B1 VH with S31D, T58H, W59Y
VL: B1 VL with V92A
B3: CM-76 (antibody, human IgG4 S228P, lambda, V domains shown)
VH: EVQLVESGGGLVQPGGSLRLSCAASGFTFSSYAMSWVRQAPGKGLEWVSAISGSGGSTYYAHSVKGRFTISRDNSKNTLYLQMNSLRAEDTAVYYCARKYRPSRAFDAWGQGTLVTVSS
VL: B1 VL with Y31F
B4: CM-65 (antibody, human IgG4 S228P, lambda, V domains shown)
VH: B1 VH with F29Y, W59Y
VL: B1 VL with E49Q, V92I
B5: CM-97 (antibody, human IgG4 S228P, lambda, V domains shown)
VH: B1 VH with S31D, W59Y
VL: B1 VL with S55Y, V92A, V95W
B6: CM-91 (antibody, human IgG4 S228P, lambda, V domains shown)
VH: B1 VH with S31D, W59Y
VL: B1 VL with G28H, S33A, V92A
B7: CM-80 (antibody, human IgG4 S228P, lambda, V domains shown)
VH: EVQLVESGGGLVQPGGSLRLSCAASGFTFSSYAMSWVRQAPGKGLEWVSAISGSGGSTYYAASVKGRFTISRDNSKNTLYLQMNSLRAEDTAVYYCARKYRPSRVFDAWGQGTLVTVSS
VL: B1 VL with P54Q, V92A
B8: CM-64 (antibody, human IgG4 S228P, lambda, V domains shown)
VH: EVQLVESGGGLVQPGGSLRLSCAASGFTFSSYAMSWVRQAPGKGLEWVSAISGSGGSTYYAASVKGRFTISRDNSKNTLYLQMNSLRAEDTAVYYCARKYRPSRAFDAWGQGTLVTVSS
VL: B1 VL with Y31F, V92A
B9: CM-87 (antibody, human IgG4 S228P, lambda, V domains shown)
VH: B1 VH with S31D, W59Y
VL: B1 VL with V92A, V95W
B10: CM-72 (antibody, human IgG4 S228P, lambda, V domains shown)
VH: B1 VH with F29Y, W59Y, V105A
VL: B1 VL with Y31F, V92I
B11: CM-71 (antibody, human IgG4 S228P, lambda, V domains shown)
VH: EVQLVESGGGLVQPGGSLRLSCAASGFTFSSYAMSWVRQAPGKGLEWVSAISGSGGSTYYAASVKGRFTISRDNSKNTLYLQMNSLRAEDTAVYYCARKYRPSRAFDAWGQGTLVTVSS
VL: B1 VL with Y31F, V92I
B12: CM-67 (antibody, human IgG4 S228P, lambda, V domains shown)
VH: B1 VH with Y32H, W59Y, Y100F
VL: B1 VL with K52R, V92A
B13: CM-75 (antibody, human IgG4 S228P, lambda, V domains shown)
VH: B1 VH with W59Y, A61V, V105A
VL: B1 VL with Y31F, E49Q, V92A
B14: CM-86 (antibody, human IgG4 S228P, lambda, V domains shown)
VH: B1 VH with Y32H, W59Y
VL: B1 VL with V92A
B15: CM-100 (antibody, human IgG4 S228P, lambda, V domains shown)
VH: B1 VH with S31D, T58H, W59Y
VL: B1 VL with G28H, V92A
B16: CM-68 (antibody, human IgG4 S228P, lambda, V domains shown)
VH: B1 VH with M34I, W59Y, V105A
VL: B1 VL with V92L
B17: CM-90 (antibody, human IgG4 S228P, lambda, V domains shown)
VH: B1 VH with S31D, W59Y
VL: B1 VL with G28H, V92A
B18: CM-69 (antibody, human IgG4 S228P, lambda, V domains shown)
VH: B1 VH with V105A
VL: B1 VL with E49Q, V92A
B19: CM-92 (antibody, human IgG4 S228P, lambda, V domains shown)
VH: B1 VH with S31D, W59Y
VL: B1 VL with G28H, V92A, V95Y
B20: CM-83 (antibody, human IgG4 S228P, lambda, V domains shown)
VH: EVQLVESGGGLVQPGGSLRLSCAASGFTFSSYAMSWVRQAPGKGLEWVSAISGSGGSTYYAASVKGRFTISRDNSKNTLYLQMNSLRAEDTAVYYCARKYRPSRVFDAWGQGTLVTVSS
VL: B1 VL with S55D, V92A
B21: CM-78 (antibody, human IgG4 S228P, lambda, V domains shown)
VH: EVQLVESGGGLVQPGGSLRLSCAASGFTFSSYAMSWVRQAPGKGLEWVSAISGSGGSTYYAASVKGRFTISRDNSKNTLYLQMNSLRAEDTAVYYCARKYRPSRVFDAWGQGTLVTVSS
VL: B1 VL with K52H, V92A
B22: CM-82 (antibody, human IgG4 S228P, lambda, V domains shown)
VH: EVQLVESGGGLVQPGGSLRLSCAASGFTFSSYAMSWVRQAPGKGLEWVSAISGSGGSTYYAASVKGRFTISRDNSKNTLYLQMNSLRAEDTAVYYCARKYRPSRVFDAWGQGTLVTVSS
VL: B1 VL with S55W, V92A
B23: CM-93 (antibody, human IgG4 S228P, lambda, V domains shown)
VH: B1 VH with S31D, W59Y
VL: B1 VL with S55D, V92A, V95Y
B24: CM-70 (antibody, human IgG4 S228P, lambda, V domains shown)
VH: B1 VH with W59Y, A61H, V105A
VL: B1 VL with Y31F, V92A
B25: CM-81 (antibody, human IgG4 S228P, lambda, V domains shown)
VH: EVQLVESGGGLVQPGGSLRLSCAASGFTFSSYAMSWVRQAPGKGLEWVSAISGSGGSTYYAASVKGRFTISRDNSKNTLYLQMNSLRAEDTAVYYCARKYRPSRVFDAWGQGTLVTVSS
VL: B1 VL with P54D, V92A
B26: CM-89 (antibody, human IgG4 S228P, lambda, V domains shown)
VH: B1 VH with S31D, W59Y
VL: B1 VL with V92A, V95Y
B27: CM-94 (antibody, human IgG4 S228P, lambda, V domains shown)
VH: B1 VH with S31D, W59Y
VL: B1 VL with G28H, D50H, A51H, V92A
B28: CM-101 (antibody, human IgG4 S228P, lambda, V domains shown)
VH: B1 VH with S31D, T58H, W59Y
VL: B1 VL with S33A, V92A
B29: CM-77 (antibody, human IgG4 S228P, lambda, V domains shown)
VH: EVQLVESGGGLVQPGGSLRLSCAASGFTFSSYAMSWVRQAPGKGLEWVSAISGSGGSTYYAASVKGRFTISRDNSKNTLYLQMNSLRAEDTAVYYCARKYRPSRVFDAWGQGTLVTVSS
VL: B1 VL with K52N, V92A
B30: CM-96 (antibody, human IgG4 S228P, lambda, V domains shown)
VH: B1 VH with S31D, W59Y
VL: B1 VL with A32M, V92A, V95W
B31: CM-79 (antibody, human IgG4 S228P, lambda, V domains shown)
VH: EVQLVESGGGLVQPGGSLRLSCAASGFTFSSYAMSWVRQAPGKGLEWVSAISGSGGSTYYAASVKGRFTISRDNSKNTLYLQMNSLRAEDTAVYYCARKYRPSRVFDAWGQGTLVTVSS
VL: B1 VL with P54N, V92A
B32: CM-84 (antibody, human IgG4 S228P, lambda, V domains shown)
VH: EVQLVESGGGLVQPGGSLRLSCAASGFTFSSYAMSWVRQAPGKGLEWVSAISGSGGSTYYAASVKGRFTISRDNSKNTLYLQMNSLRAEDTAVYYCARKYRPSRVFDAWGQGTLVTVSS
VL: B1 VL with S55D, V92A, V95Y
B33: CM-66 (antibody, human IgG4 S228P, lambda, V domains shown)
VH: B1 VH with F29Y, W59Y, V105A
VL: B1 VL with V92I
B34: CM-85 (antibody, human IgG4 S228P, lambda, V domains shown)
VH: B1 VH with F27Y, W59Y
VL: B1 VL with V92A
B35: CM-88 (antibody, human IgG4 S228P, lambda, V domains shown)
VH: B1 VH with S31D, W59Y
VL: B1 VL with V92A, V95R
B36: CM-74 (antibody, human IgG4 S228P, lambda, V domains shown)
VH: B1 VH with F106Y
VL: B1 VL with K52R, V92I
B37: CM-73 (antibody, human IgG4 S228P, lambda, V domains shown)
VH: B1 VH with F29Y, W59Y, V105A
VL: B1 VL with E49Q, V92I
B38: CM-98 (antibody, human IgG4 S228P, lambda, V domains shown)
VH: B1 VH with S31D, W59Y
VL: B1 VL with S55W, V92A, V95W
B39: CM-102 (antibody, human IgG4 S228P, lambda, V domains shown)
VH: B1 VH with S31D, T58H, W59Y
VL: B1 VL with V92A, V95W
B40: CM-95 (antibody, human IgG4 S228P, lambda, V domains shown)
VH: B1 VH with S31D, W59Y
VL: B1 VL with D50H, A51H, V92A

The binders below were run against T1, human S100A8/A9 heterodimeric antigen, … (assay: cell-based or functional assay).

Relative IC50 (IC50 relative to CM-1), IL-6 release from hS100A8/A9-activated human PBMCs	Binder
1.33 relative to CM-1	B1
1.3 relative to CM-1	B2
1.55 relative to CM-1	B3
0.618 relative to CM-1	B4
0.599 relative to CM-1	B5
1.1 relative to CM-1	B6
0.943 relative to CM-1	B7
0.5 relative to CM-1	B8
0.749 relative to CM-1	B9
0.639 relative to CM-1	B10
1.23 relative to CM-1	B11
0.548 relative to CM-1	B12
2.85 relative to CM-1	B13
1.27 relative to CM-1	B14
1.12 relative to CM-1	B15
1.78 relative to CM-1	B16
1.54 relative to CM-1	B17
1.93 relative to CM-1	B18
0.697 relative to CM-1	B19
2.48 relative to CM-1	B20

Relative IC50 (IC50 relative to CM-1), IL-6 release from hS100A8/A9-activated human PBMCs	Binder
0.99 relative to CM-1	B21
0.156 relative to CM-1	B22
0.953 relative to CM-1	B23
1.95 relative to CM-1	B24
2.51 relative to CM-1	B25
0.572 relative to CM-1	B26
2.81 relative to CM-1	B27
0.683 relative to CM-1	B28
0.633 relative to CM-1	B29
1.47 relative to CM-1	B30
0.695 relative to CM-1	B31
0.393 relative to CM-1	B32
0.694 relative to CM-1	B33
1.86 relative to CM-1	B34
1.01 relative to CM-1	B35
1.52 relative to CM-1	B36
0.703 relative to CM-1	B37
0.703 relative to CM-1	B38
0.464 relative to CM-1	B39
1.11 relative to CM-1	B40
